Test results as given in patent US20240117325.

Target: β-lactoglobulin

Protein | allergenic protein degradation rate | allergenic protein residual rate | reductase activity (AMS labelling, SDS-PAGE)
fusion protein of ferredoxin-thioredoxin reductase (FTRB/FTRA2) and thioredoxin Y2 fused via linker peptide (GGGGS)3 of 15 amino acid residues (protein) chain 1: AKTEPSEKSVEIMRKFSEQYARRSGTYFCVDKGVTSVVIKGLAEHKDSYGAPLCPCRHYDDKAAEVGQGFWNCPCVPMRERKECHCMLFLTPDNDFAGKDQTITSDEIKETTANMGGGGSGGGGSGGGGSAAKKQTFNSFDDLLQNSDKPVLVDFYATWCGPCQLMVPILNEVSETLKDIIAVVKIDTEKYPSLANKYQIEALPTFILFKDGKLWDRFEGALPANQLVERIENSLQVKQ chain 2: DIAVKSAASVDADADLSSSTSLETEEDEKAKEKIGARVRVTVPLKVYHVVRVPEVELMGMEGFIKDYVVLWKGKKISANLPFKVQFVKEIEGRGPVKFFTHLKEDEFELIDPHHHHHH | the degradation rate was 56% | the allergenic protein residual rate was 44% | The reduced form of the allergenic protein was detected in all of (b) to (d) in FIG. 11, confirming reductase activity
fusion protein of ferredoxin-thioredoxin reductase (FTRB/FTRA2) and thioredoxin Y2 fused via linker peptide (GGGGS)2 of 10 amino acid residues (protein) chain 1: AKTEPSEKSVEIMRKFSEQYARRSGTYFCVDKGVTSVVIKGLAEHKDSYGAPLCPCRHYDDKAAEVGQGFWNCPCVPMRERKECHCMLFLTPDNDFAGKDQTITSDEIKETTANMGGGGSGGGGSAAKKQTFNSFDDLLQNSDKPVLVDFYATWCGPCQLMVPILNEVSETLKDIIAVVKIDTEKYPSLANKYQIEALPTFILFKDGKLWDRFEGALPANQLVERIENSLQVKQ chain 2: DIAVKSAASVDADADLSSSTSLETEEDEKAKEKIGARVRVTVPLKVYHVVRVPEVELMGMEGFIKDYVVLWKGKKISANLPFKVQFVKEIEGRGPVKFFTHLKEDEFELIDPHHHHHH | the degradation rate was 58% | the allergenic protein residual rate was 42% | The reduced form of the allergenic protein was detected in all of (b) to (d) in FIG. 11, confirming reductase activity
fusion protein of ferredoxin-thioredoxin reductase (FTRB/FTRA2) and thioredoxin Y2 fused via linker peptide (GGGGS)1 of 5 amino acid residues (protein) chain 1: AKTEPSEKSVEIMRKFSEQYARRSGTYFCVDKGVTSVVIKGLAEHKDSYGAPLCPCRHYDDKAAEVGQGFWNCPCVPMRERKECHCMLFLTPDNDFAGKDQTITSDEIKETTANMGGGGSAAKKQTFNSFDDLLQNSDKPVLVDFYATWCGPCQLMVPILNEVSETLKDIIAVVKIDTEKYPSLANKYQIEALPTFILFKDGKLWDRFEGALPANQLVERIENSLQVKQ chain 2: DIAVKSAASVDADADLSSSTSLETEEDEKAKEKIGARVRVTVPLKVYHVVRVPEVELMGMEGFIKDYVVLWKGKKISANLPFKVQFVKEIEGRGPVKFFTHLKEDEFELIDPHHHHHH | the degradation rate was 29% | the allergenic protein residual rate was 71% | The reduced form of the allergenic protein was detected in all of (b) to (d) in FIG. 11, confirming reductase activity
